Experimental data published in patent US20180100178A1 (CORNELL UNIVERSITY, published 2018).
Blank lines part the entries; values can stand above or below the binder they belong to.

B3: Alexa Fluor 488-labeled recombinant mouse GAC (FRET donor) (enzyme)
chain: SSSPSEILQELGKGGTPPQQQQQQQQQPGASPPAAPGPKDSPGETDAFGNSEGKEMVAAGDNKIKQGLLPSLEDLLFYTIAEGQEKIPVHKFITALKSTGLRTSDPRLKECMDMLRLTLQTTSDGVMLDKDLFKKCVQSNIVLLTQAFRRKFVIPDFMSFTSHIDELYESAKKQSGGKVADYIPQLAKFSPDLWGVSVCTVDGQRHSIGDTKVPFCLQSCVKPLKYAIAVNDLGTEYVHRYVGKEPSGLRFNKLFLNEDDKPHNPMVNAGAIVVTSLIKQGVNNAEKFDYVMQFLNKMAGNEYVGFSNATFQSERESGDRNFAIGYYLKEKKCFPEGTDMVGILDFYFQLCSIEVTCESASVMAATLANGGFCPITGERVLSPEAVRNTLSLMHSCGMYDFSGQFAFHVGLPAKSGVAGGILLVVPNVMGMMCWSPPLDKMGNSVKGIHFCHDLVSLCNFHNYDNLRHFAKKLDPRREGGDQRHSFGPLDYESLQQELALKDTVWKKVSPESSDDTSTTVVYRMESLGERS
modifications: labeled with Alexa Fluor 488 succinimidyl ester (sites not given)
notes: not shown: N-terminal His tag and thrombin cleavage site from pET28a
B4: QSY9-labeled recombinant mouse GAC (FRET acceptor) (enzyme)
chain: SSSPSEILQELGKGGTPPQQQQQQQQQPGASPPAAPGPKDSPGETDAFGNSEGKEMVAAGDNKIKQGLLPSLEDLLFYTIAEGQEKIPVHKFITALKSTGLRTSDPRLKECMDMLRLTLQTTSDGVMLDKDLFKKCVQSNIVLLTQAFRRKFVIPDFMSFTSHIDELYESAKKQSGGKVADYIPQLAKFSPDLWGVSVCTVDGQRHSIGDTKVPFCLQSCVKPLKYAIAVNDLGTEYVHRYVGKEPSGLRFNKLFLNEDDKPHNPMVNAGAIVVTSLIKQGVNNAEKFDYVMQFLNKMAGNEYVGFSNATFQSERESGDRNFAIGYYLKEKKCFPEGTDMVGILDFYFQLCSIEVTCESASVMAATLANGGFCPITGERVLSPEAVRNTLSLMHSCGMYDFSGQFAFHVGLPAKSGVAGGILLVVPNVMGMMCWSPPLDKMGNSVKGIHFCHDLVSLCNFHNYDNLRHFAKKLDPRREGGDQRHSFGPLDYESLQQELALKDTVWKKVSPESSDDTSTTVVYRMESLGERS
modifications: labeled with QSY9 succinimidyl ester (sites not given)
notes: also called QSY9-GAC; QSY9-labeled GAC; not shown: N-terminal His tag and thrombin cleavage site from pET28a

Legend:
[1] = target: B3; assay: FRET exchange (competition): excess unlabeled GAC added to preformed 488-labeled GAC / QSY9-GAC complexes; displaced competitor is QSY9-GAC; with or without 100 mM phosphate or sulfate [panel A]
[2] = target: the molecule itself; assay: SEC-MALS of 5 mg/ml protein, self-association (dimer/tetramer), without and after preincubation with BPTES; MW on a log axis [panel C]
From the text: (§1) LS=light scattering; MW=molecular weight. […] Points represent the mean and error bars the standard deviation of three independent experiments.

[3] = target: B4; assay: FRET, exchange with excess unlabeled GAC
[4] = target: the molecule itself; assay: SEC-MALS of 5 mg/ml protein, self-association, without and after preincubation with BPTES; MW on a log axis [panel B]
From the text: LS=light scattering; MW=molecular weight.

[5] = target: B4; assay: FRET, self-association of labeled GAC in solution
[6] = target: B3; assay: FRET time trace: 25 nM 488-labeled GAC (donor) + 75 nM QSY9-GAC (acceptor); 100 mM phosphate, sulfate or water added at 10 min [panel A]
[7] = target: the molecule itself; assay: SEC-MALS of 5 mg/ml protein, self-association (dimer/tetramer), without and after preincubation with BPTES; MW on a log axis [panel D]
From the text: as §1

- binding result [1]: binds
- binding result [3]: binds
B1: wild-type recombinant mouse glutaminase C (GAC), residues 73-603, unlabeled (enzyme)
chain: SSSPSEILQELGKGGTPPQQQQQQQQQPGASPPAAPGPKDSPGETDAFGNSEGKEMVAAGDNKIKQGLLPSLEDLLFYTIAEGQEKIPVHKFITALKSTGLRTSDPRLKECMDMLRLTLQTTSDGVMLDKDLFKKCVQSNIVLLTQAFRRKFVIPDFMSFTSHIDELYESAKKQSGGKVADYIPQLAKFSPDLWGVSVCTVDGQRHSIGDTKVPFCLQSCVKPLKYAIAVNDLGTEYVHRYVGKEPSGLRFNKLFLNEDDKPHNPMVNAGAIVVTSLIKQGVNNAEKFDYVMQFLNKMAGNEYVGFSNATFQSERESGDRNFAIGYYLKEKKCFPEGTDMVGILDFYFQLCSIEVTCESASVMAATLANGGFCPITGERVLSPEAVRNTLSLMHSCGMYDFSGQFAFHVGLPAKSGVAGGILLVVPNVMGMMCWSPPLDKMGNSVKGIHFCHDLVSLCNFHNYDNLRHFAKKLDPRREGGDQRHSFGPLDYESLQQELALKDTVWKKVSPESSDDTSTTVVYRMESLGERS
notes: one subunit is described; also called WT GAC; unlabeled GAC; not shown: N-terminal His tag and thrombin cleavage site from pET28a
- Specific activity of WT GAC without phosphate (mol Glu/min mol GAC), against [GAC]: specific activity (triangles, left axis) rises with [GAC] from about 90 at about 85 nM through about 400 at about 430 nM to about 500 at about 1000-1500 nM, flattening; no lower plateau inside the range (linear axis)
- binding result [2]: binds

B2: mouse GAC F327W,D391K double mutant (residues 73-603) (enzyme)
chain: SSSPSEILQELGKGGTPPQQQQQQQQQPGASPPAAPGPKDSPGETDAFGNSEGKEMVAAGDNKIKQGLLPSLEDLLFYTIAEGQEKIPVHKFITALKSTGLRTSDPRLKECMDMLRLTLQTTSDGVMLDKDLFKKCVQSNIVLLTQAFRRKFVIPDFMSFTSHIDELYESAKKQSGGKVADYIPQLAKFSPDLWGVSVCTVDGQRHSIGDTKVPFCLQSCVKPLKYAIAVNDLGTEYVHRYVGKEPSGLRFNKLWLNEDDKPHNPMVNAGAIVVTSLIKQGVNNAEKFDYVMQFLNKMAGNEYVGFSNATFQSERESGKRNFAIGYYLKEKKCFPEGTDMVGILDFYFQLCSIEVTCESASVMAATLANGGFCPITGERVLSPEAVRNTLSLMHSCGMYDFSGQFAFHVGLPAKSGVAGGILLVVPNVMGMMCWSPPLDKMGNSVKGIHFCHDLVSLCNFHNYDNLRHFAKKLDPRREGGDQRHSFGPLDYESLQQELALKDTVWKKVSPESSDDTSTTVVYRMESLGERS
notes: Found as a dimer by SEC-MALS; also called GAC double mutant; dimeric GACF327W,D391K double mutant; not shown: N-terminal His tag and thrombin cleavage site from pET28a
- binding result [4]: binds

Binder: B3
- binding result [5]: binds

Binder: B4
- binding result [6]: binds

B5: mouse GAC F327W mutant (residues 73-603) (enzyme)
chain: SSSPSEILQELGKGGTPPQQQQQQQQQPGASPPAAPGPKDSPGETDAFGNSEGKEMVAAGDNKIKQGLLPSLEDLLFYTIAEGQEKIPVHKFITALKSTGLRTSDPRLKECMDMLRLTLQTTSDGVMLDKDLFKKCVQSNIVLLTQAFRRKFVIPDFMSFTSHIDELYESAKKQSGGKVADYIPQLAKFSPDLWGVSVCTVDGQRHSIGDTKVPFCLQSCVKPLKYAIAVNDLGTEYVHRYVGKEPSGLRFNKLWLNEDDKPHNPMVNAGAIVVTSLIKQGVNNAEKFDYVMQFLNKMAGNEYVGFSNATFQSERESGDRNFAIGYYLKEKKCFPEGTDMVGILDFYFQLCSIEVTCESASVMAATLANGGFCPITGERVLSPEAVRNTLSLMHSCGMYDFSGQFAFHVGLPAKSGVAGGILLVVPNVMGMMCWSPPLDKMGNSVKGIHFCHDLVSLCNFHNYDNLRHFAKKLDPRREGGDQRHSFGPLDYESLQQELALKDTVWKKVSPESSDDTSTTVVYRMESLGERS
notes: as for B3
- binding result [7]: binds
